IntAct's records for PubMed 26601939

B1: Syndecan-4 (Rattus norvegicus (Rat)), P34901 (parent)
chain: MAPVCLFAPLLLLLLGGFPVAPGESIRETEVIDPQDLLEGRYFSGALPDDEDAGGLEQDSDFELSGSGDLDDTEEPRTFPEVISPLVPLDNHIPENAQPGIRVPSEPKELEENEVIPKRVPSDVGDDDVSNKVSMSSTSQGSNIFERTEVLAALIVGGVVGILFAVFLILLLVYRMKKKDEGSYDLGKKPIYKKAPTNEFYA
B2: Syndecan-2 (Rattus norvegicus (Rat)), P34900 (parent)
chain: MQRAWILLTLGLMACVSAETRAELTSDKDMYLDSSSIEEASGLYPIDDDDYSSASGSGAYEDKGSPDLTTSQLIPRISLTSAAPEVETMTLKTQSITPTQTESPEETDKKEFEISEAEEKQDPAVKSTDVYTEKHSDNLFKRTEVLAAVIAGGVIGFLFAIFLILLLVYRMRKKDEGSYDLGERKPSSAAYQKAPTKEFYA
B3: Syndecan-2 (Rattus norvegicus (Rat)), P34900 (parent)
chain: B2 chain
partner: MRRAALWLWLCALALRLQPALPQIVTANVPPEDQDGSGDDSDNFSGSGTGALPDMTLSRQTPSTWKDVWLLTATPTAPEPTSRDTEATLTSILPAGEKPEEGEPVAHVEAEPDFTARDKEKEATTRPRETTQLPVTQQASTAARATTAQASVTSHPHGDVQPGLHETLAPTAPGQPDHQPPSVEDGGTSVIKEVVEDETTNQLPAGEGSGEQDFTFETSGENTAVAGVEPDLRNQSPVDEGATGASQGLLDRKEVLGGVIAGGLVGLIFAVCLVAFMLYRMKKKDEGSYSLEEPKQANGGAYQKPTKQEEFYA
B4: Syndecan-4 (Rattus norvegicus (Rat)), P34901 (parent)
chain: B1 chain
partner: B3 partner
B5: Syndecan-4 (Rattus norvegicus (Rat)), P34901 (parent)
chain: B1 chain
partner: B2 chain
B6: Syndecan-2 (Rattus norvegicus (Rat)), P34900 (parent)
chain: B2 chain
partner: B1 chain
B7: Syndecan-1 (Rattus norvegicus (Rat)), P26260 (parent)
chain: B3 partner
partner: B2 chain

Variants of: B1
Details: with sdc3_rat Sdc3, P33671
Sequence of sdc3_rat Sdc3, P33671 (P33671 whole entry): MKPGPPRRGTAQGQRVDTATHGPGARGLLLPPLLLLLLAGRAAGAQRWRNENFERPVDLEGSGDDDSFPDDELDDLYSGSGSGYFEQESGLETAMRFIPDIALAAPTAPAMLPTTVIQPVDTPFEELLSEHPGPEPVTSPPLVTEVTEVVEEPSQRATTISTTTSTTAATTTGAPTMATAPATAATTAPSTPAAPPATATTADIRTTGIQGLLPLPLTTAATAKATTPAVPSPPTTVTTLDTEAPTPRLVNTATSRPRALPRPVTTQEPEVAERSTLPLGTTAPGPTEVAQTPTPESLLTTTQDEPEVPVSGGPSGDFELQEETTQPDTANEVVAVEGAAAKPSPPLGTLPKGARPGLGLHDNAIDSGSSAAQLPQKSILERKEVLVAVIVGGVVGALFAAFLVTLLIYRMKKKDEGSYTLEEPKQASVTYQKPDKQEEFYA

| effect of a mutation on the interaction | Variant |
| --- | --- |
| decreasing interaction strength | F164Y |

Variants of: B2
Details: with sdc3_rat Sdc3, P33671

| effect of a mutation on the interaction | Variant |
| --- | --- |
| decreasing interaction strength | F159Y |

Variants of: B3
Details: with sdc1_rat Sdc1, P26260

| effect of a mutation on the interaction | Variant |
| --- | --- |
| with no effect | F162Y |

Variants of: B4
Details: with sdc1_rat Sdc1, P26260

| effect of a mutation on the interaction | Variant |
| --- | --- |
| decreasing interaction strength | F164Y |

Variants of: B5
Details: with sdc2_rat Sdc2, P34900

| effect of a mutation on the interaction | Variant |
| --- | --- |
| decreasing interaction strength | F164Y |

Variants of: B6
Details: with sdc4_rat Sdc4, P34901

| effect of a mutation on the interaction | Variant |
| --- | --- |
| with no effect | F162Y |
| decreasing interaction strength | F159Y |
| disrupting interaction strength | F157Y |

Variants of: B6
Details: with sdc4_rat Sdc4, P34901
Remark: another data set of the same source

| effect of a mutation on the interaction | Variant |
| --- | --- |
| decreasing interaction | F159Y |

Variants of: B6
Details: with sdc4_rat Sdc4, P34901
Remark: another data set of the same source

| effect of a mutation on the interaction | Variant |
| --- | --- |
| disrupting interaction strength | F159Y |

Variants of: B7
Details: with sdc2_rat Sdc2, P34900

| effect of a mutation on the interaction | Variant |
| --- | --- |
| disrupting interaction strength | F269Y |
| disrupting interaction strength | F269Y;C272F |
| with no effect | C272F |
